Molecular target: the molecule itself
Assay: crystal structure

Protein | binding result
S128A S. enterica siroheme synthase (CysG) (enzyme, also called S128A-CysG; source: E. coli LMG194 (pBAD vector), purified (Ni-NTA, anion-exchange, size exclusion chromatography)) MDHLPIFCQLRDRDCLIVGGGDVAERKARLLLEAGARLTVNALTFIPQFTVWANEGMLTLVEGPFDETLLDSCWLAIAATDDDTVNQRVSDAAESRRIFCNVVDAPKAASFIMPSIIDRSPLMVAVSAGGTSPVLARLLREKLESLLPQHLGQVARYAGQLRARVKKQFATMGERRRFWEKFFVNDRLAQSLANADEKAVNATTERLFSEPLDHRGEVVLVGAGPGDAGLLTLKGLQQIQQADIVVYDRLVSDDIMNLVRRDADRVFVGKRAGYHCVPQEEINQILLREAQKGKRVVRLKGGDPFIFGRGGEELETLCHAGIPFSVVPGITAASGCSAYSGIPLTHRDYAQSVRLVTGHLKTGGELDWENLAAEKQTLVFYMGLNQAATIQEKLIAFGMQADMPVALVENGTSVKQRVVHGVLTQLGELAQQVESPALIIVGRVVALRDKLNWFSNH | binds
D262A/S128A CysG (enzyme, source: E. coli LMG194 (pBAD vector), purified (Ni-NTA, anion-exchange, size exclusion chromatography)) MDHLPIFCQLRDRDCLIVGGGDVAERKARLLLEAGARLTVNALTFIPQFTVWANEGMLTLVEGPFDETLLDSCWLAIAATDDDTVNQRVSDAAESRRIFCNVVDAPKAASFIMPSIIDRSPLMVAVSAGGTSPVLARLLREKLESLLPQHLGQVARYAGQLRARVKKQFATMGERRRFWEKFFVNDRLAQSLANADEKAVNATTERLFSEPLDHRGEVVLVGAGPGDAGLLTLKGLQQIQQADIVVYDRLVSDDIMNLVRRAADRVFVGKRAGYHCVPQEEINQILLREAQKGKRVVRLKGGDPFIFGRGGEELETLCHAGIPFSVVPGITAASGCSAYSGIPLTHRDYAQSVRLVTGHLKTGGELDWENLAAEKQTLVFYMGLNQAATIQEKLIAFGMQADMPVALVENGTSVKQRVVHGVLTQLGELAQQVESPALIIVGRVVALRDKLNWFSNH | binds
D104A/S128A CysG (enzyme, source: E. coli LMG194 (pBAD vector), purified (Ni-NTA, anion-exchange, size exclusion chromatography)) MDHLPIFCQLRDRDCLIVGGGDVAERKARLLLEAGARLTVNALTFIPQFTVWANEGMLTLVEGPFDETLLDSCWLAIAATDDDTVNQRVSDAAESRRIFCNVVAAPKAASFIMPSIIDRSPLMVAVSAGGTSPVLARLLREKLESLLPQHLGQVARYAGQLRARVKKQFATMGERRRFWEKFFVNDRLAQSLANADEKAVNATTERLFSEPLDHRGEVVLVGAGPGDAGLLTLKGLQQIQQADIVVYDRLVSDDIMNLVRRDADRVFVGKRAGYHCVPQEEINQILLREAQKGKRVVRLKGGDPFIFGRGGEELETLCHAGIPFSVVPGITAASGCSAYSGIPLTHRDYAQSVRLVTGHLKTGGELDWENLAAEKQTLVFYMGLNQAATIQEKLIAFGMQADMPVALVENGTSVKQRVVHGVLTQLGELAQQVESPALIIVGRVVALRDKLNWFSNH | binds
R261A/S128A CysG (enzyme, source: E. coli LMG194 (pBAD vector), purified (Ni-NTA, anion-exchange, size exclusion chromatography)) MDHLPIFCQLRDRDCLIVGGGDVAERKARLLLEAGARLTVNALTFIPQFTVWANEGMLTLVEGPFDETLLDSCWLAIAATDDDTVNQRVSDAAESRRIFCNVVDAPKAASFIMPSIIDRSPLMVAVSAGGTSPVLARLLREKLESLLPQHLGQVARYAGQLRARVKKQFATMGERRRFWEKFFVNDRLAQSLANADEKAVNATTERLFSEPLDHRGEVVLVGAGPGDAGLLTLKGLQQIQQADIVVYDRLVSDDIMNLVRADADRVFVGKRAGYHCVPQEEINQILLREAQKGKRVVRLKGGDPFIFGRGGEELETLCHAGIPFSVVPGITAASGCSAYSGIPLTHRDYAQSVRLVTGHLKTGGELDWENLAAEKQTLVFYMGLNQAATIQEKLIAFGMQADMPVALVENGTSVKQRVVHGVLTQLGELAQQVESPALIIVGRVVALRDKLNWFSNH | binds
D104N/S128A CysG (enzyme, source: E. coli LMG194 (pBAD vector), purified (Ni-NTA, anion-exchange, size exclusion chromatography)) MDHLPIFCQLRDRDCLIVGGGDVAERKARLLLEAGARLTVNALTFIPQFTVWANEGMLTLVEGPFDETLLDSCWLAIAATDDDTVNQRVSDAAESRRIFCNVVNAPKAASFIMPSIIDRSPLMVAVSAGGTSPVLARLLREKLESLLPQHLGQVARYAGQLRARVKKQFATMGERRRFWEKFFVNDRLAQSLANADEKAVNATTERLFSEPLDHRGEVVLVGAGPGDAGLLTLKGLQQIQQADIVVYDRLVSDDIMNLVRRDADRVFVGKRAGYHCVPQEEINQILLREAQKGKRVVRLKGGDPFIFGRGGEELETLCHAGIPFSVVPGITAASGCSAYSGIPLTHRDYAQSVRLVTGHLKTGGELDWENLAAEKQTLVFYMGLNQAATIQEKLIAFGMQADMPVALVENGTSVKQRVVHGVLTQLGELAQQVESPALIIVGRVVALRDKLNWFSNH | binds
R260A/S128A CysG (enzyme, source: E. coli LMG194 (pBAD vector), purified (Ni-NTA, anion-exchange, size exclusion chromatography)) MDHLPIFCQLRDRDCLIVGGGDVAERKARLLLEAGARLTVNALTFIPQFTVWANEGMLTLVEGPFDETLLDSCWLAIAATDDDTVNQRVSDAAESRRIFCNVVDAPKAASFIMPSIIDRSPLMVAVSAGGTSPVLARLLREKLESLLPQHLGQVARYAGQLRARVKKQFATMGERRRFWEKFFVNDRLAQSLANADEKAVNATTERLFSEPLDHRGEVVLVGAGPGDAGLLTLKGLQQIQQADIVVYDRLVSDDIMNLVARDADRVFVGKRAGYHCVPQEEINQILLREAQKGKRVVRLKGGDPFIFGRGGEELETLCHAGIPFSVVPGITAASGCSAYSGIPLTHRDYAQSVRLVTGHLKTGGELDWENLAAEKQTLVFYMGLNQAATIQEKLIAFGMQADMPVALVENGTSVKQRVVHGVLTQLGELAQQVESPALIIVGRVVALRDKLNWFSNH | binds
P133H/S128A CysG (enzyme, source: E. coli LMG194 (pBAD vector), purified (Ni-NTA, anion-exchange, size exclusion chromatography)) MDHLPIFCQLRDRDCLIVGGGDVAERKARLLLEAGARLTVNALTFIPQFTVWANEGMLTLVEGPFDETLLDSCWLAIAATDDDTVNQRVSDAAESRRIFCNVVDAPKAASFIMPSIIDRSPLMVAVSAGGTSHVLARLLREKLESLLPQHLGQVARYAGQLRARVKKQFATMGERRRFWEKFFVNDRLAQSLANADEKAVNATTERLFSEPLDHRGEVVLVGAGPGDAGLLTLKGLQQIQQADIVVYDRLVSDDIMNLVRRDADRVFVGKRAGYHCVPQEEINQILLREAQKGKRVVRLKGGDPFIFGRGGEELETLCHAGIPFSVVPGITAASGCSAYSGIPLTHRDYAQSVRLVTGHLKTGGELDWENLAAEKQTLVFYMGLNQAATIQEKLIAFGMQADMPVALVENGTSVKQRVVHGVLTQLGELAQQVESPALIIVGRVVALRDKLNWFSNH | binds
P133G/S128A CysG (enzyme, source: E. coli LMG194 (pBAD vector), purified (Ni-NTA, anion-exchange, size exclusion chromatography)) MDHLPIFCQLRDRDCLIVGGGDVAERKARLLLEAGARLTVNALTFIPQFTVWANEGMLTLVEGPFDETLLDSCWLAIAATDDDTVNQRVSDAAESRRIFCNVVDAPKAASFIMPSIIDRSPLMVAVSAGGTSGVLARLLREKLESLLPQHLGQVARYAGQLRARVKKQFATMGERRRFWEKFFVNDRLAQSLANADEKAVNATTERLFSEPLDHRGEVVLVGAGPGDAGLLTLKGLQQIQQADIVVYDRLVSDDIMNLVRRDADRVFVGKRAGYHCVPQEEINQILLREAQKGKRVVRLKGGDPFIFGRGGEELETLCHAGIPFSVVPGITAASGCSAYSGIPLTHRDYAQSVRLVTGHLKTGGELDWENLAAEKQTLVFYMGLNQAATIQEKLIAFGMQADMPVALVENGTSVKQRVVHGVLTQLGELAQQVESPALIIVGRVVALRDKLNWFSNH | binds
D262N/S128A CysG (enzyme, source: E. coli LMG194 (pBAD vector), purified (Ni-NTA, anion-exchange, size exclusion chromatography)) MDHLPIFCQLRDRDCLIVGGGDVAERKARLLLEAGARLTVNALTFIPQFTVWANEGMLTLVEGPFDETLLDSCWLAIAATDDDTVNQRVSDAAESRRIFCNVVDAPKAASFIMPSIIDRSPLMVAVSAGGTSPVLARLLREKLESLLPQHLGQVARYAGQLRARVKKQFATMGERRRFWEKFFVNDRLAQSLANADEKAVNATTERLFSEPLDHRGEVVLVGAGPGDAGLLTLKGLQQIQQADIVVYDRLVSDDIMNLVRRNADRVFVGKRAGYHCVPQEEINQILLREAQKGKRVVRLKGGDPFIFGRGGEELETLCHAGIPFSVVPGITAASGCSAYSGIPLTHRDYAQSVRLVTGHLKTGGELDWENLAAEKQTLVFYMGLNQAATIQEKLIAFGMQADMPVALVENGTSVKQRVVHGVLTQLGELAQQVESPALIIVGRVVALRDKLNWFSNH | binds

Reference: paper PMC7018833, “Siroheme synthase orients substrates for dehydrogenase and chelatase activities in a common active site” (Nature Communications, 2020)
